Data on one protein can be found in PMC9741242, “Insights into the Structure of the Highly Glycosylated Ffase from Rhodotorula dairenensis Enhance Its Biotechnological Potential” (International Journal of Molecular Sciences, 2022).

Substrate in this series: OC[C@H]1O[C@@](CO)(O[C@H]2O[C@H](CO)[C@@H](O)[C@H](O)[C@H]2O)[C@@H](O)[C@@H]1O
Description: DNS reducing sugar assay, Michaelis-Menten fit. The class given is biochemical, Rhodotorula dairenensis. To be noted: 50 mM sodium phosphate pH 5.5, 60 °C, sucrose 1-200 mM. An excerpt: DNS reducing sugar assay, Michaelis-Menten fit on RdINVΔ21–139

B1: RdINVΔ21–139 (Rhodotorula dairenensis) (protein)
chain: SSSCAPTSLPASATELPTTVPTGTVITGDYTGSYRPQVHYSPPKGFMNDPNGCHRDRNGTYHLYYQYNPLEYVAGNQHWGHATSDDLYHWTNQPIAIFPPNSTSQVFSGSAVLDPNNTSGFFPNTTDGVVAVYTLNTPTLQVQEVAYSTDGGYNFTPYENNPVLSVGSNQFRDPKVFWYEDHWVMAVAAANDFTIEIYTSPNLTSWTFASNFTHHGLLGLAYECPNLVQVPFQDDPSKSAWLMYISINPGAPLGGSVGQYFPGDFNGTHFVAYDSAARIADFAKDNYASQWFADTENGESISIAWASNWQYTQQVPTSAQAFRSAMSLPRRNYLTNITRLGWDLVSLPYDLSPVVGPSLLSSSEANSTADVDFTNVTSNAVWFSLNVTLPDAAIQNASLISADASINITFLPSTKCSSSSGSGSDSPAATLTYFYAGLTNGALALTRPAASSSWGAENPFFTDKFSYTLVDPLTSLVGVFDRSMLEVFVNEGAHSATMLVFPDSPVGSMKVATGGLPEGTQVNLQVNGLESTWQSS
notes: truncated: residues 21-139 deleted after the signal peptide (residues 140-675 remain); secreted by Komagataella phaffii, glycosylated, ~100 kDa; homodimer; deglycosylated for crystals
For B1, the Km came out at 9 ± 1 mM, the kcat is 16400 ± 216 s⁻¹ and the kcat/Km was found to be 1.781e+06 ± 16000 M⁻¹ s⁻¹.

As a reminder, the Km is the concentration of substrate that gives half-maximal velocity. Usually kcat stands for the maximal rate divided by the concentration of active sites. For orientation: kcat/Km means the second-order rate constant that governs catalysis at low substrate concentration.
